Data as given in US20220153796A1.

Biological target: HLA-A*24 (human)
Assay: UV peptide exchange ELISA

| Binder | peptide exchange yield [%] |
| --- | --- |
| KTPTNYYLF | > 75 |
| TLPNTIYRF | > 75 |
| IYQQIIQTY | > 75 |
| SYEVRSTF | 50 to 75 |
| IMPEKFEFW | > 75 |
| RYEGILYTI | > 75 |
| LYQEILAQL | > 75 |
| KYALLLQEL | > 75 |
| QYQNVLTLW | > 75 |
| KYMKIFHKF | > 75 |
| TYNPDFSSL | 50 to 75 |
| YYSKSVGFMQW | > 75 |
| TQPGDWTLF | > 75 |
| AYLSAVGTF | > 75 |
| VYPLLSRLYW | > 75 |
| KYLEESVWL | > 75 |
| QWPWQASLQF | > 75 |
| SYSSCYSF | 50 to 75 |
| VWSDVTPLNF | > 75 |
| YYSIISHTL | > 75 |
| KSSVIASLLF | 50 to 75 |
| WYGWHFPEL | 50 to 75 |
| KFIISDWRF | > 75 |
| YPSIIQEF | > 75 |
| AFPVTSIFHTF | > 75 |

| Binder | peptide exchange yield [%] |
| --- | --- |
| KYITNLEDL | > 75 |
| NYAIFDEGHML | > 75 |
| QFAAPLRGIYF | > 75 |
| STIRGELFFF | 10 to 20 |
| SYMVLAPVF | > 75 |
| YYADKKTFIVL | 50 to 75 |
| IYFRDSSFL | > 75 |
| RYMKKDYLI | > 75 |
| SLPDLTPTF | > 75 |
| DYIGSVEKW | > 75 |
| RYPGKFYRV | > 75 |
| SYNGYVFYL | > 75 |
| PFLPPAACFF | > 75 |
| SYIGLPLTL | 50 to 75 |
| NYAENILTL | 50 to 75 |
| PYTNYTFDF | > 75 |
| KYTNWKAFL | > 75 |
| YLEKFYGL | 20 to 50 |
| VWSNVTPLKF | > 75 |
| RWMDQRLVF | > 75 |
| QYLPGWTVLF | > 75 |
| LLIKLLQTF | 50 to 75 |
| VYMIEPLEL | > 75 |
| MQPRMFFLF | > 75 |
| QYEPPSAPSTTF | 50 to 75 |

| Binder | peptide exchange yield [%] |
| --- | --- |
| KQMEDGHTLF | 20 to 50 |
| KYSTTFFMV | 20 to 50 |
| AYTLLGHEFV | 10 to 20 |
| VQQWSVAVF | 50 to 75 |
| VYPASKMFPFI | > 75 |
| ILKEDPFLF | 10 to 20 |
| VYDQYFITL | > 75 |
| IQMDEPMAF | 10 to 20 |
| EFTTVLYNF | > 75 |
| LYISEVRNI | > 75 |
| KYKDYFPVI | > 75 |
| KYFVPPQLF | > 75 |
| KYADYFLEV | > 75 |
| NYIYSISVF | > 75 |
| TYLSIFDQL | 50 to 75 |
| VMPSDSFFF | > 75 |
| KYALLLQDL | > 75 |
| NYTLYPITF | > 75 |
| HYTYILEVF | > 75 |
| LIFMLANVF | 10 to 20 |
| SYEKVINYL | > 75 |
| VFIDHPVHLKF | > 75 |
| SYPELVKMVW | > 75 |
| MYPDLSELLM | > 75 |
| QYDPTPLTW | > 75 |
